Experimental data published in the supplement of paper PMC10567573.

B1: TRIM63 (parent)
chain: QRITQEQEKKLSFIEALIQQYQEQ
B2: TRIM55 (parent)
chain: ICPICLEMFTKPVVILPCQHNLCR

Variants of: B1
Assay: protein stability index of a GFP-peptide fusion (GPS, HEK-293T) (PSI 1-6); higher = more stable
Conditions: c terminus: a fixed tail appended
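Also: lentivirally expressed fusions sorted by FACS into six bins by GFP to DsRed ratio, PSI derived from sequencing read proportions per bin multiplied by bin number.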

Protein stability index of substitutions, site by site:
Q24: I 2.52, L 2.16, P 2.68, C 2.51
Q20: D 2.35, E 1.09, L 2.43, N 2.93, S 2.4, R 2.28
A16: I 3.03, W 2.37, V 1.76, N 2.69, T 2.15
I14: R 3.15, P 4.55, N 4.7, M 2.79
Y21: R 3.91, M 1.98, T 3.23, S 3.19, N 4.41
I3: Y 2.16, N 2.48, P 2.62, C 2.3, D 2.22
E15: G 2.44, H 2.28, S 2.12, D 2.19, A 2.82, F 1.92, P 3.48
E6: K 2, A 2.24, Q 1.75
I18: C 2.67, E 2.2, R 3.4, D 2.92
Q22: L 2.1, E 1.5
Q5: F 1.73, K 2.82, E 2.98, L 1.68
T4: L 2.63, Y 1.66, S 2.5, P 2.87
K9: Y 2.2, M 2.44, G 2.78, V 2.22, A 2.6
L17: M 2.93, E 4.81, V 2.2, C 2.23, Y 1.92, P 4.63, N 4.73
Q7: E 2.76, N 3.1, T 3.54, G 1.83
R2: W 2.2, P 3.23, Q 2.23, H 2.44, V 2.72
L11: E 3.98, K 1.56, W 2.26, H 2.8
Q19: A 1.8, Y 1.64
S12: A 3.19, G 2.71, N 2.74, W 1.57, Q 2.62, F 2.56, C 2.25
K10: L 1.72, V 2.02, F 2.1, E 3
F13: Q 4.33, L 2.72, G 4.6, N 4.66, C 3.56, E 4.78
E8: L 1.86, P 1.66, S 2.17, T 2.28, Q 2.12, Y 1.82, D 1.95
E23: M 1.51, I 1.54
Q1: P 2.17, G 2.13, W 1.95, F 2.91

Variants of: B2
Assay: as above
Conditions: c terminus: a fixed tail appended

Protein stability index, by site and new letter:
K11: S 2.67, D 3.28, M 1.94, N 2.32, Y 1.69, W 1.93, I 2.29
C2: G 1.77, N 1.78, L 2.04, V 2.11, Q 1.73, S 2.55, F 2.02, A 2.31, I 1.56, T 1.6, E 2.05, D 1.96
P3: M 2.07, H 2.35, D 2.53, R 1.27, A 1.27, V 2.21, Q 1.2, K 1.66, L 2.17, F 1.6
P17: D 2.27, Q 2, I 2.18, K 1.93, V 2.33, T 2.32, N 1.86, H 2.35, L 2.44, Y 1.99, W 2.31, C 1.8
E7: I 1.94, A 2.3, C 1.92, D 2.35, M 2.09, N 1.53, W 1.89, Q 2.42, L 2.47, K 1.87, G 2.52
L16: M 2.38, I 2.05, T 2.77, H 2.86, D 2.61, A 2.56, C 2.4
I4: H 2.26, L 1.78, Y 2.69, V 2.51, Q 3.02
H20: A 2.22, N 1.88, Q 2.2, T 1.54, C 2.23, V 1.34, D 2.14, M 1.54, G 2.08, I 1.45, Y 1.52, S 2.12
M8: T 2.73, E 2.59, W 3.09, R 2.42, C 2.44, N 1.9, A 2.76, F 2.55, D 3.58, P 2.71
Q19: P 2.12, F 2.05, D 2.54, I 2.68, L 1.84, E 2.28, M 2.15, N 2.34, K 2.01
C18: A 1.75, V 1.91, W 1.95, L 1.77, N 1.81, Q 2.19, H 2.27, F 1.89, K 1.89, M 2.16, R 1.45
L6: W 2.77, R 2.22, M 2.45, I 2.32, D 2.79, C 2.39, G 2.25, A 2.03, K 2.81, N 2.94
C5: W 1.6, D 2.05, H 1.15, Y 2.3, G 1.8, N 2.01, M 2.09, F 1.57
I15: N 2.5, L 2.6, Y 2.02, A 2.84, P 2.69, Q 3.22, E 3.32, T 2.88, F 2.32, R 2.18
V13: W 1.89, F 2.31, D 3.31, L 2.26, Q 3.49, A 2.37, S 2.58
L22: S 2.4, C 2.04, W 2.44, A 2.36, Q 2.72, N 2.54, D 2.64, K 2.38
V14: L 2.29, A 2.56, T 2.63, S 3.12, I 2.4, W 1.89, K 2.33, C 2.32, P 2.56, Y 2.15, N 2.93
I1: E 2.85, C 2.36, W 2.59, T 2.51, G 2.46, H 2.62, K 2.75, Q 3.01
P12: W 1.97, Y 1.8, M 2.25, L 2.02, K 2.5, A 2.19, R 2.05, F 1.55, T 2.34, S 2.59, N 2.99, I 2.23, C 2.42
R24: S 1.85, F 2.01, D 2.27, Q 2.57, Y 2.13, T 2.71
F9: R 2.18, S 2.75, I 2.77, G 2.52, T 3.07, W 2.47, Y 2.18, N 2.75, K 3.63
N21: E 2.54, T 2.39, P 2.52, I 2.04, W 2.19, Y 2.48, H 2.39, G 2.71, S 2.93, C 2.2
C23: E 2.65, V 2.46, Y 2.25, T 2.64, L 2.28, N 2.13, M 2.43, D 1.97
T10: K 2.34, E 2.59, C 2.08, H 2.27, M 2.3, G 2.25, P 2.46, L 2.59, D 2.48, V 1.56
